Results from patent publication EP4680648A1 (dated 2026).

Tests used:
[1] = molecular target: T1, dog HER3 expressed on CHO-S cells (CHO-dHER3 cells) (dog, UniProt P21860 20-1342 (human entry)); test: flow cytometry on CHO-dHER3 cells
T1 chain: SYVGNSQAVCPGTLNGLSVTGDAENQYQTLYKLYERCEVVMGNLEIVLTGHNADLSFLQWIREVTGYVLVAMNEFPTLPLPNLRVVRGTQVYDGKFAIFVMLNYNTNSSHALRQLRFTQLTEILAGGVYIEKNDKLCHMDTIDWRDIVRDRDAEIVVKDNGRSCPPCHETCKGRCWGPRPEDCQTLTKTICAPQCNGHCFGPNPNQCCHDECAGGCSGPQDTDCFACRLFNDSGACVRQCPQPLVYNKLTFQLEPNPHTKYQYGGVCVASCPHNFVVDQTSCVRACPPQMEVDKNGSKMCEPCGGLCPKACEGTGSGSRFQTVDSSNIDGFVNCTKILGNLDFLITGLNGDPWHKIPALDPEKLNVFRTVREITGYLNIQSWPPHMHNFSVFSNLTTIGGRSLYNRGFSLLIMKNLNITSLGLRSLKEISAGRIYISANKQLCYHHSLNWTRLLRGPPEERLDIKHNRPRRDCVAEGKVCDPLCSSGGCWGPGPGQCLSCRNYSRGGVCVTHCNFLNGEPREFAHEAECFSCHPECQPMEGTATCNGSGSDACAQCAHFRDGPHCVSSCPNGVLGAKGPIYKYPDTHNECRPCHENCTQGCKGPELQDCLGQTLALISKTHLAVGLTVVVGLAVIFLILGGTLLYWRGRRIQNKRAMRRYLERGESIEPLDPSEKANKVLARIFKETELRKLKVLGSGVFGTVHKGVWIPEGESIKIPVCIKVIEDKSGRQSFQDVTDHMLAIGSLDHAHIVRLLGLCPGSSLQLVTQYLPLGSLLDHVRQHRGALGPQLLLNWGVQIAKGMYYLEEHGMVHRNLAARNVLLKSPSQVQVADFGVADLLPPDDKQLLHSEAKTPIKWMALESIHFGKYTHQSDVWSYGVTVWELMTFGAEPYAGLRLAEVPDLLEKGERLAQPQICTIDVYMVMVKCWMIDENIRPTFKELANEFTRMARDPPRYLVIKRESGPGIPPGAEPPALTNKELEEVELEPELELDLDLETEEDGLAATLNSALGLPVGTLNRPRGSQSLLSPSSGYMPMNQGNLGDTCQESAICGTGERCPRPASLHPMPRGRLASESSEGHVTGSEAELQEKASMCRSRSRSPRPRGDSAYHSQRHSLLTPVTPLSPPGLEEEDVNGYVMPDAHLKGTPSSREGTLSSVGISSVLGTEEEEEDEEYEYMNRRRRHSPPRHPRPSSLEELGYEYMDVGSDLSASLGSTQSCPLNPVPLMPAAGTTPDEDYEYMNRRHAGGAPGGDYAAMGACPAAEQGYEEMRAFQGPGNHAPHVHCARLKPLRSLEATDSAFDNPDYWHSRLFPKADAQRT

[2] = molecular target: human HER3 expressed on CHO-S cells (CHO-hHER3 cells) (human, UniProt P21860 20-643); test: flow cytometry on CHO-hHER3 cells
[3] = molecular target: T2, His-tagged human HER3 protein (hHER3, ACRO Biosystems Inc., Cat#: ER3-H5223) (human, UniProt P21860 20-643); test: SPR (Biacore 8K), antibody captured on Protein A chip, His-tagged HER3 as analyte
T2 construct: Bought protein; also called hHER3-His; not shown: His tag

[4] = molecular target: T3, monkey (Macaca fascicularis) HER3 expressed on CHO-S cells (CHO-fasHER3 cells) (monkey (Macaca fascicularis), UniProt P21860 20-643 (human entry)); test: flow cytometry on CHO-fasHER3 cells
T3 construct: also called monkey HER3
T3 chain: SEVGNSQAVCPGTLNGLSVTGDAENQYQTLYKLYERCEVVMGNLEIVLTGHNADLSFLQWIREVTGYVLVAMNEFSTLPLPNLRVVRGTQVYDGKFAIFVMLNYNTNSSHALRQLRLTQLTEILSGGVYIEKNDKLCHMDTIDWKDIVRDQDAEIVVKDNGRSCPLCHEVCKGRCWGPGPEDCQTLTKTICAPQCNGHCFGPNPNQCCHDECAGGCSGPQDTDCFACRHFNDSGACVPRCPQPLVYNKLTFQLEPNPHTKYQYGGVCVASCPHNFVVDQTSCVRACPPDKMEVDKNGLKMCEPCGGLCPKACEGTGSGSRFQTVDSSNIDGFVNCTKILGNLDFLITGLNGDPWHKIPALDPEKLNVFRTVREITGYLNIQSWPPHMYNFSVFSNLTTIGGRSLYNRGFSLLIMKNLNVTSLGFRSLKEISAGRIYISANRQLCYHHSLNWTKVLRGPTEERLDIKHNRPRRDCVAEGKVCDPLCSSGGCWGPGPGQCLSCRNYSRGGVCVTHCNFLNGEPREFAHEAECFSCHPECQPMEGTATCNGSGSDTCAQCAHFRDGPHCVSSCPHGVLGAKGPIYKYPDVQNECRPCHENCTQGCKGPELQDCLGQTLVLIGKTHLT

[5] = molecular target: mouse HER3 expressed on CHO-S cells (CHO-mHER3 cells) (mouse, UniProt Q61526 20-641); test: flow cytometry on CHO-mHER3 cells
Chain of mouse HER3 expressed on CHO-S cells (CHO-mHER3 cells) (Q61526 20-641): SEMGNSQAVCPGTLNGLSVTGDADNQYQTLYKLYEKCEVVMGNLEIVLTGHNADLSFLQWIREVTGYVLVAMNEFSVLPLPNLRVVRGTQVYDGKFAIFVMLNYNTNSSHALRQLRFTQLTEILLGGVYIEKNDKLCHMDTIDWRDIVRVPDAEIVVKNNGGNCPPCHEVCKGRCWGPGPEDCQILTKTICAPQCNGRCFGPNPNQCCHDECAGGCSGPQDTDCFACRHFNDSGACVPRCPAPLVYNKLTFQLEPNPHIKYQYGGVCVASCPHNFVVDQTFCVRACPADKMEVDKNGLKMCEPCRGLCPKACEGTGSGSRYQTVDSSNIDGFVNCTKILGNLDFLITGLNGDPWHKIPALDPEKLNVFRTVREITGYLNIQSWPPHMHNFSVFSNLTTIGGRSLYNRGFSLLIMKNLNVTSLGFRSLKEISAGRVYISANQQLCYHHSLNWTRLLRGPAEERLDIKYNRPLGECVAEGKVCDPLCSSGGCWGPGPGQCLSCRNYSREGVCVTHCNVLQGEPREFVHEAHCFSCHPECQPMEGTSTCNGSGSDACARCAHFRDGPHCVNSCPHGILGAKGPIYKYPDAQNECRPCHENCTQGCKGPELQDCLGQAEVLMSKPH

[6] = molecular target: T2, His-tagged human HER3 protein (hHER3, …); test: SPR (Biacore 8K), antibody captured on Protein A chip, His-tagged hHER3 as analyte

Measured: binding result

B1: anti-HER3 antibody 1D6 (antibody, human IgG1, V domains shown)
VH: EVQLVQSGPGLVKPSETLSLTCTVSGGSISSNNYYWAWIRQPPGKGLEWIGSLYYTGRAYYKSSLKSRVTISVDTSNDQFSLRLTSVTAADTAIYYCARHDCGNTCLNWFDRWGQGTLVTVSS
VL: not shown
notes: common light chain
not listed: [6]
binds: all other assays above

B2: anti-HER3 antibody 3G6 (antibody, human IgG1, V domains shown)
VH: QVQLVQSGPVLVKPTETLTLTCTVSGFSLSNIRMGVSWIRQPPGKALEWLAHIFSNDDKSYSTSLKSRLTISKDTSKSQVVLTMTNVDPVDTATYYCTRMRYSGGPFDYWGQGTLVTVSS
VL: not shown
notes: common light chain
not listed: [3]
binds: all other assays above

B3: anti-HER3 antibody 1B2 (antibody, V domains shown)
VH: QVQLVQSGPVLVKPTETLTLTCTVSTFSLSNARMGVSWIRQPPGKALEWLAHIFSNDDKSYSPSLKSRLTISKDTSKTQVVLTMTNMDPVDTATYYCSRMRYSGGPFDYWGQGSLVTVSS
VL: not shown
notes: common light chain
not listed: [3]
binds: all other assays above

B4: anti-HER3 antibody 3E1 (antibody, human IgG1, V domains shown)
VH: EVQLVQSGPVLAKPTETLTLTCTVSGFSLSNIRMGVSWIRQPPGKALEWLAHIFSNDDKSYSPSLKNRLTISKDTSKSQVVLTMTTMDPMDTATYYCTRMKYSGGPFDYWGQGTLVTVSS
VL: not shown
notes: common light chain
not listed: [3]
binds: all other assays above

B5: anti-HER3 antibody 1C5 (antibody, human IgG1, V domains shown)
VH: QVQLVESGGGVVQPGKSLRLSCAASGFTFSRSGMHWVRQAPGKGLEWVALISFDGSNKYYADSVKGRFTISRDNSKNTLNLQMNSLRAEDTAVYYCAKGGFGVVIYDAFDIWGHGTMVTVSS
VL: not shown
notes: common light chain
binds: [6] | [1] | [2] | [4]
